From US20130209454A1

Key:
[1] = target: Env of HIV-1 strain AC10.0.29 (HIV-1); test: cell-based or functional assay
[2] = target: Env of HIV-1 strain CAP210.2.00.E8 (HIV-1); test: cell-based or functional assay
[3] = target: Env of HIV-1 strain CAP45.2.00.G3 (HIV-1); test: cell-based or functional assay
[4] = target: Env of HIV-1 strain Du172.17 (HIV-1); test: cell-based or functional assay
[5] = target: Env of HIV-1 strain SC422661.8 (HIV-1); test: cell-based or functional assay
[6] = target: Env of HIV-1 strain TRO.11 (HIV-1); test: cell-based or functional assay
[7] = target: HIV-1 strain AC10.0.29 envelope (gp120) (HIV-1); test: cell-based or functional assay
[8] = target: HIV-1 strain CAP210.2.00.E8 envelope (gp120) (HIV-1); test: cell-based or functional assay
[9] = target: HIV-1 strain CAP45.2.00.G3 envelope (gp120) (HIV-1); test: cell-based or functional assay
[10] = target: HIV-1 strain Du172.17 envelope (gp120) (HIV-1); test: cell-based or functional assay
[11] = target: HIV-1 strain SC422661.8 envelope (gp120) (HIV-1); test: cell-based or functional assay
[12] = target: HIV-1 strain TRO.11 envelope (gp120) (HIV-1); test: cell-based or functional assay
[13] = target: gp120 (ZM135M.PL10a) of the CD4-gp120 complex structure (HIV-1); test: CD4-gp120 complex structure, AreaIMol, 1.4 Å probe
[14] = target: 93TH057 gp120 core (HIV-1)
[15] = target: CAP244.2.00.D3 gp120 core (HIV-1)
[16] = target: Q259.d2.17 gp120 core (HIV-1)
[17] = target: HIV-1 Env of strain AC10.0.29 (HIV-1); test: cell-based or functional assay
[18] = target: HIV-1 Env of strain CAP45.2.00.G3 (HIV-1); test: cell-based or functional assay
[19] = target: HIV-1 Env of strain QH0692.42 (HIV-1); test: cell-based or functional assay
[20] = target: HIV-1 Env of strain SC422661.8 (HIV-1); test: cell-based or functional assay
[21] = target: HIV-1 Env of strain T257-31 (HIV-1); test: cell-based or functional assay
[22] = target: HIV-1 Env of strain TRO.11 (HIV-1); test: cell-based or functional assay
[23] = target: HIV-1 Env of strain ZM214M.PL15 (HIV-1); test: cell-based or functional assay
[24] = target: 93TH057 gp120 core (HIV-1); test: structure PDB 3NGB, AreaIMol, 1.4 Å probe
[25] = target: HIV-1 Env of strain 3016.v5.c45 (HIV-1); test: cell-based or functional assay
[26] = target: HIV-1 Env of strain C2101.c01 (HIV-1); test: cell-based or functional assay
[27] = target: HIV-1 strain QH0692.42 envelope (gp120) (HIV-1); test: cell-based or functional assay
[28] = target: HIV-1 strain T257-31 envelope (gp120) (HIV-1); test: cell-based or functional assay
[29] = target: HIV-1 strain ZM214M.PL15 envelope (gp120) (HIV-1); test: cell-based or functional assay

Sequence of NIH45-46 Fab (C-terminal 6x-His tagged heavy chain, SPR) (VH): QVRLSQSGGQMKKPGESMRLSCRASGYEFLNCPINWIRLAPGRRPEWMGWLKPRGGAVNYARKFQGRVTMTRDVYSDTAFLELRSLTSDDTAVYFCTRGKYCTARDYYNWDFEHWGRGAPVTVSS
Sequence of NIH45-46 Fab (C-terminal 6x-His tagged heavy chain, SPR) (V domain): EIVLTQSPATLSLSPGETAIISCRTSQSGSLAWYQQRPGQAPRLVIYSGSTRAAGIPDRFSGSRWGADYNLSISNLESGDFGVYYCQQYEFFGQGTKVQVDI

Row | Substance | IC50 [1] [µg/mL] | IC50 [2] [µg/mL] | IC50 [3] [µg/mL] | IC50 [4] [µg/mL] | IC50 [5] [µg/mL] | IC50 [6] [µg/mL] | further results
1 | 3BNC60 T54A (antibody) | 2.6 | 0.1 | > 50 | > 50 | 0.027 | 0.003 | 
2 | 3BNC60 T54D (antibody) | > 50 | > 50 | > 50 | > 50 | 0.556 | 0.036 | 
3 | 3BNC60 T54E (antibody) | 2.92 | > 50 | > 50 | > 50 | 0.075 | 0.004 | 
4 | 3BNC60 T54F (antibody) |  | 3.4 |  | 2.2 | 0.025 | 0.023 | 
5 | 3BNC60 T54G (antibody) | 0.623 | 11.9 | > 50 | 0.02 | 0.01 | 0.0003 | 
6 | 3BNC60 T54H (antibody) | > 50 | 1.6 | 6.64 | 0.055 | 0.003 | 0.011 | 
7 | 3BNC60 T54I (antibody) | > 50 | > 50 | > 50 | 21.8 | 0.054 | 0.027 | 
8 | 3BNC60 T54K (antibody) | > 50 | > 50 | > 50 | > 50 | 0.024 | 0.029 | 
9 | 3BNC60 T54L (antibody) | > 50 | 30.7 | > 50 | 3.59 | 0.034 | 0.019 | 
10 | 3BNC60 T54M (antibody) | > 50 | 25 | > 50 | 1.43 | 0.032 | 0.019 | 
11 | 3BNC60 T54N (antibody) | > 50 | 16.3 | 16.7 | 0.662 | 0.025 | 0.008 | 
12 | 3BNC60 T54P (antibody) | > 50 | > 50 | > 50 | > 50 | 0.143 | 0.048 | 
13 | 3BNC60 T54Q (antibody) | 9.04 | 7.4 | 6.66 | 0.243 | 0.038 | 0.006 | 
14 | 3BNC60 T54R (antibody) | > 50 | 5 | > 50 | 2.15 | 0.014 | 0.006 | 
15 | 3BNC60 T54S (antibody) | > 50 | 14.7 | 41.7 | 0.92 | 0.036 | 0.02 | 
16 | 3BNC60 T54V (antibody) | > 50 | 42.8 | > 50 | 7.36 | 0.039 | 0.024 | 
17 | 3BNC60 T54W (antibody) |  | 2.6 |  | 2.2 | 0.031 | 0.021 | 
18 | 3BNC60 T54W IgG (antibody) |  |  |  |  |  |  | neutralization IC50 [7]: 3.1 µg/mL; neutralization IC50 [8]: 5 µg/mL; neutralization IC50 [9]: 19 µg/mL; neutralization IC50 [10]: 0.04 µg/mL; neutralization IC50 [11]: 0.1 µg/mL; neutralization IC50 [12]: 0.06 µg/mL
19 | 3BNC60 T54Y (antibody) |  | 2.9 |  | 2.2 | 0.02 | 0.012 | 
20 | 3BNC117 T54W IgG (antibody) |  |  |  |  |  |  | neutralization IC50 [7]: 2.8 µg/mL; neutralization IC50 [8]: 2.8 µg/mL; neutralization IC50 [9]: 23 µg/mL; neutralization IC50 [10]: 0.9 µg/mL; neutralization IC50 [11]: 0.07 µg/mL; neutralization IC50 [12]: 0.6 µg/mL
21 | CD4 (from UniProt P01730 26-208) (receptor) |  |  |  |  |  |  | buried surface area on gp120, Inner domain & bridging sheet [13]: 400 Å^2; buried surface area on gp120, Loop D + NAG [13]: 136 Å^2; buried surface area on gp120, Outer domain exit loop [13]: 97 Å^2; buried surface area on gp120, V5 [13]: 155 Å^2; buried surface area on gp120, β-15/α-3 + NAG [13]: 263 Å^2; buried surface area on gp120, β-24 [13]: 14 Å^2; buried surface area, Interface on Fab or CD4 [13]: 1060 Å^2; buried surface area, Total gp120 [13]: 973 Å^2
22 | NIH45-46 Fab (C-terminal 6x-His tagged heavy chain, SPR) |  |  |  |  |  |  | Kd [14]: 160 nM; koff [14]: 0.0048 s⁻¹; kon [14]: 31000 M⁻¹ s⁻¹; Kd [15]: 97 nM; koff [15]: 0.0067 s⁻¹; kon [15]: 69000 M⁻¹ s⁻¹; Kd [16]: 190 nM; koff [16]: 0.01 s⁻¹; kon [16]: 55000 M⁻¹ s⁻¹
23 | NIH45-46 Y99dA IgG (antibody) |  |  |  |  |  |  | neutralization IC50 [17]: 4.4 µg/mL; neutralization IC50 [18]: > 50 µg/mL; neutralization IC50 [19]: 2.1 µg/mL; neutralization IC50 [20]: 0.08 µg/mL; neutralization IC50 [21]: 2.4 µg/mL; neutralization IC50 [22]: > 50 µg/mL; neutralization IC50 [23]: 1.1 µg/mL
24 | VRC01 Fab (structure of VRC01-93TH057, PDB code 3NGB) |  |  |  |  |  |  | buried surface area on gp120, Inner domain & bridging sheet [24]: 157 Å^2; buried surface area on gp120, Loop D + NAG [24]: 433 Å^2; buried surface area on gp120, Outer domain exit loop [24]: 57 Å^2; buried surface area on gp120, V5 [24]: 328 Å^2; buried surface area on gp120, β-15/α-3 + NAG [24]: 208 Å^2; buried surface area on gp120, β-24 [24]: 43 Å^2; buried surface area, Interface on Fab or CD4 [24]: 1210 Å^2; buried surface area, Total gp120 [24]: 1220 Å^2; total buried surface area, light chain with gp120 [24]: 681 Å^2; buried surface area, CDR3 ([24]; VRC01 heavy chain): 117 Å^2; buried surface area, Interface on gp120 ([24]; VRC01 heavy chain): 882 Å^2; buried surface area, Total Fab ([24]; VRC01 heavy chain): 892 Å^2; buried surface area, CDR3 ([24]; VRC01 light chain): 165 Å^2; buried surface area, Interface on gp120 ([24]; VRC01 light chain): 367 Å^2; buried surface area, Total Fab ([24]; VRC01 light chain): 314 Å^2
25 | VRC01 IgG (antibody) |  |  |  |  |  |  | neutralization IC50 [25]: 0.16 µg/mL; neutralization IC50 [26]: 0.36 µg/mL; neutralization IC50 [7]: 0.8 µg/mL; neutralization IC50 [9]: 1.8 µg/mL; neutralization IC50 [27]: 0.7 µg/mL; neutralization IC50 [11]: 0.2 µg/mL; neutralization IC50 [28]: 1 µg/mL; neutralization IC50 [12]: 0.5 µg/mL; neutralization IC50 [29]: 0.8 µg/mL
26 | VRC01 heavy chain paired with the NIH45-46 light chain (IgG) (antibody) |  |  |  |  |  |  | neutralization IC50 [7]: 4.5 µg/mL; neutralization IC50 [9]: > 50 µg/mL; neutralization IC50 [27]: 1.2 µg/mL; neutralization IC50 [11]: 0.4 µg/mL; neutralization IC50 [28]: 15 µg/mL; neutralization IC50 [12]: 24 µg/mL; neutralization IC50 [29]: 1.8 µg/mL
